A value given as a limit tells only on which side of the number the result lay.

Experimental findings from paper PMC3553987 (Nucleic Acids Research, 2012) are described below.

Assay [1] relates to GAS consensus site DNA (TTCnnnGAA). As to the kind of experiment: TIRF-PBM binding of STAT1 proteins to DNA.
For another assay, the system named is GAS cognate DNA. As to the kind of experiment: EMSA with P32-labeled cognate DNA. To be noted: data not shown. It counts as binding. On the technique in general: In EMSA bound probe runs differently from free probe, usually more slowly.

B1: P-STAT1tc: Phosphorylated truncated STAT1 lacking N-terminal domain and short C-terminal activation domain (amino acids 132-712) (protein, UniProt P42224 132-712, looked up, fragment)
chain: STVMLDKQKELDSKVRNVKDKVMCIEHEIKSLEDLQDEYDFKCKTLQNREHETNGVAKSDQKQEQLLLKKMYLMLDNKRKEVVHKIIELLNVTELTQNALINDELVEWKRRQQSACIGGPPNACLDQLQNWFTIVAESLQQVRQQLKKLEELEQKYTYEHDPITKNKQVLWDRTFSLFQQLIQSSFVVERQPCMPTHPQRPLVLKTGVQFTVKLRLLVKLQELNYNLKVKVLFDKDVNERNTVKGFRKFNILGTHTKVMNMEESTNGSLAAEFRHLQLKEQKNAGTRTNEGPLIVTEELHSLSFETQLCQPGLVIDLETTSLPVVVISNVSQLPSGWASILWYNMLVAEPRNLSFFLTPPCARWAQLSEVLSWQFSSVTKRGLNVDQLNMLGEKLLGPNASPDGLIPWTRFCKENINDKNFPFWLWIESILELIKKHLLPLWNDGCIMGFISKERERALLKDQQPGTFLLRFSESSREGAITFTWVERSQNGGEPDFHAVEPYTKKELSAVTFPDIIRNYKVMAAENIPENPLKYLYPNIDKDHAFGKYYSRPKEAPEPMELDGPKGTGYIKTELISVSEV
modifications: phosphorylated
Consider B1, for which the “average fold impact on binding compared to P-STAT1 at preferred binding sites” value in assay [1] (reduced binding) stood at 2.6 fold.

B2: U-STAT1: unphosphorylated STAT1 (protein, UniProt P42224 2-750, looked up)
Signal transducer and …: SQWYELQQLDSKFLEQVHQLYDDSFPMEIRQYLAQWLEKQDWEHAANDVSFATIRFHDLLSQLDDQYSRFSLENNFLLQHNIRKSKRNLQDNFQEDPIQMSMIIYSCLKEERKILENAQRFNQAQSGNIQSTVMLDKQKELDSKVRNVKDKVMCIEHEIKSLEDLQDEYDFKCKTLQNREHETNGVAKSDQKQEQLLLKKMYLMLDNKRKEVVHKIIELLNVTELTQNALINDELVEWKRRQQSACIGGPPNACLDQLQNWFTIVAESLQQVRQQLKKLEELEQKYTYEHDPITKNKQVLWDRTFSLFQQLIQSSFVVERQPCMPTHPQRPLVLKTGVQFTVKLRLLVKLQELNYNLKVKVLFDKDVNERNTVKGFRKFNILGTHTKVMNMEESTNGSLAAEFRHLQLKEQKNAGTRTNEGPLIVTEELHSLSFETQLCQPGLVIDLETTSLPVVVISNVSQLPSGWASILWYNMLVAEPRNLSFFLTPPCARWAQLSEVLSWQFSSVTKRGLNVDQLNMLGEKLLGPNASPDGLIPWTRFCKENINDKNFPFWLWIESILELIKKHLLPLWNDGCIMGFISKERERALLKDQQPGTFLLRFSESSREGAITFTWVERSQNGGEPDFHAVEPYTKKELSAVTFPDIIRNYKVMAAENIPENPLKYLYPNIDKDHAFGKYYSRPKEAPEPMELDGPKGTGYIKTELISVSEVHPSRLQTTDNLLPMSPEEFDEVSRIVGSVEFDSMMNTV
modifications: unphosphorylated
With B2, in assay [1] (optimal GAS site DNA), the “fold impact on affinity compared to P-STAT1 binding” value is listed as above 100 fold. For the same molecule, the “fold decrease in binding affinity vs P-STAT1” value in the assay on GAS cognate DNA is on record as above 200 fold.
